Experimental data: the DeepSol protein solubility set

Test: soluble on expression in E. coli; label from the status in PepcDB or PDB records

Sequence | soluble on expression in E. coli
MAGDPMREITDIAVAESGDSDFKERLETKNAKSWLKSVSAFANGIGGTLYFGVEDRTRRIIGVQDIQLTISKITELIVARITPRPVFECIPLQQKGKDILAVRVDSGKHTPFYYVHDHHHTAYIRMGDESVPATDYQLNELILKGRNETYDSQITEKLRTDYSFTLLEATYLHTLNQHMSDSDYVSFGLAVEDGRLTNAGLLFADQCPLPDSRVFCTRWNGLQRGSVHEDATDDAEYSGNLIYLLKSATEFIRRNTRKGWTKTANGRVEKPDYAERAYFEGVVNALIHRTYDFRGTEVHVEMYDDRLVISSPGGIYGGGELEPMSDGSYISKRRNPILADIFSRLRYMERRGSGIKKIFEATKNLYGYTEEKKPFFLVNKQNDFFLTIPNVNYRSESVTTHDTIHDTIHDTIHDTIHDKIALLLSFCQTPRSREEMMEFVGLRNRDHFQKKYLRPLLEQEKIEMTIPEKPQSKNQKYRTKEVVKLEHHHHHH | soluble
MYGISVFLGEEITNDTIIYIKKMKALGFDGIFTSLHIPEDDTSLYRQRLTDLGAIAKAEKMKIMVDISGEALKRAGFSFDELEPLIELGVTGLRMDYGITIEQMAHASHKIDIGLNASTITLEEVAELKAHQADFSRLEAWHNYYPRPETGIGTTFFNEKNRWLKELGLQVFTFVPGDGQTRGPIFAGLPTLEKHRGQNPFAAAVGLMADPYVDAVYIGDPTISERTMAQFGYYHQTNQFLLEVAPSESRYLKRILGTHTNRLDAARDVLRSELSRTSEMFRKDEIATIESEQTEARPVGTVTIDNEKYGRYMGEIQVTLVDLPKDEKVNTITRIIEKDQTILPLIKAGNQFTLVTEGTIENEFRKLNN | soluble
MAGMFQDLLYLNLIGAVRAITAAQGIKIRISGEENVPESGGAVVVVNHTGYLDFIYAGYPFRKFRRYIRYMAKGDVFKHPVAGPLLREMRHIPVDRIDGTAAFDQAVDMLKKGELVGIFPEATISRSFEIKTLRPGAVRMAQAAGVPIIMVMVVGSQRVWTKGQKKNLIHPGSPIHMKVFPAWYPEGDANEATQELRRRMITGLEEVWSDYQAEEPIVPGALWVPARLGGGAPTFDEAQAEDEKVEQERRRVRVLTEEIAQLTERIKQATKAGASAVDAARHRVEDVLHGEVPAKADAGKALSVLKDTVDEFVEEVVSSAKEGKDRVMDAGEQLRRSVADLYGQAVTASQVNPVVVQATAQVSMLLDRLPQRKDAPKVELPRVLVLSVDGAVAAYPEVTLSPSVLSQVAALSQQHTVVLTTISGMDRVVALARQVAQESGADVCVSASAGAVAATVSDTDVSVLHECVVSDELRAAVQECVDSLGLDVEWKGAHHGVVSGLGADPDLWQELSQVVRVVPLPGEPDRCVIVSPEASVEAAVQTCVGDVWDEVLVCAADASEAGALARAGHRVAVVSAPVVVLREAAQWCDRPDKDGVINFLDKHFITPESV | not soluble
MGSDKIHHHHHHMDVSITQTSADKIKAGKSGLLLISDNYDAFAARVLAARGAARTLDLMYYLWHDDHTGRLLLQEVVRAAQRGVRVRMLLDDVNPRKSDAAYLALSNHPNIELKLFNPSGIRARGLMRGAEVLLRLFALTRRMHNKAWIADDNIAIVGGRNVGDAYFDAAETNFRDLDMLLLGPAVQQTAQIFQTFWVCQDAKPIAELGAAAPGSHAPYFEGREEKTESTLLSGIRDKGSIAEFISASSNVHWVERVRVISDPPEKVRGWRPRSWLMKELLPIIQSARKRVEIVSPYFIPGKKGSKILGDLVDDGVQVAVLTNSLAATDVAAVHGAYANYRKRLLRMGVQLFELQPFSRQPKISVFGSKGASLHTKAFSVDNRIGFVGSFNFDPRSVSLNSEMGVLFEDENLVAELRHRFKSEIAPEASYRLELKNEVLRWHGSDEGRLQTYTREPEAAWFRRILAALVRHLPIESQL | not soluble
MEIRPTRIELIRTRRRIKLARKGLDLLKMKRSALIYEFLQISRTIRGMRENLRREVEDALNTIRTAEILEGQVALERIANMSSDSTINVDSRNVMGVVIPTLNLTYNLSILSDVYRTISVPVAINDAIDRFQRLFLNLIQILEKENALRNLLIEIDKTKRRSNAIENILIPRLEYQAKMIKMMLDERERDTFTTLKTIKKKIEAGKDEE | not soluble
MKPIDRFSYLKNNRVSQDTSSLVQCYLPIIGQEALSLYLYTISFWDNGRKEYLFSSILNHLNFGMDRLIKSLKILSAFNLLTLYQKGDVYQLALHAPLSSQDFLGHPVYRRLLEKKIGDVAVEDLKVESADGEEIPVSLNQVFPELAELGSQEDLGLKKKVANDFDLEHFRQLMARDGLRFADEQSDVLNLFAIAEEKKWTWFETYQLAKSTAVSQVISTKRMREKIAQKPVSSDFSLKEATIIKEAKSKTALQFLAEIKQTRKGTITQTERELLQQMAGLGLLDEVINIILLLTFNKVDSANINEKYAMKVANDYAYQKIHSAEEAVLRIRDRGQKAKTQKQNQTAPEKTNVPKWSNPEYKNETSEETRLELERKKQELLARLEKGGD | not soluble
MGSDKIHHHHHHKSISNKLVVFDDKEQVIQYSSNSIPVKIELYSKRWGKTSITYNNSLKEFWDIVESMPRSKNFYGSTKIENSPNDIIGTIFYLNGKRSTMCLNHNLKIDDSYYGGERGYAYINRLRNYINDIMCTPSMLASIVNDKNKVIIEDKLSEASKCGSNDKTLIKNEITKLRRISNNEKLQKTITSKGKLNYHIKIYMENSNGSNINLSKIKQDNYDIISISVYENNCAVIRDYGNDTVDTFCMEGNLTNVCKSILKR | not soluble
MMIYCARIVAIGLFVADGLTDKMLITFDSNGPKDCLDYSLSLEPSFREESLMILPGDRLLLAGHDYLVTSVGKGAQQALFELGHLTLVFNGDLNACHVGAVHLSGPVPKLRDLHGNLVIEEGRP | soluble
MTTKEITLDENGFATEAGFITVYNYSGETREYISTSTEYLAVGVGIPACSCLDAPVTHKAGYAICRSADFNSWEYVPDHRGEIVFSTETGESKEITAPGDYPDNTTTIAPLTPYDKWDGEKWVTDTEAQHSAAVDAAEAQRQSLIDTAMASISLIQLKLQAGRKLTQAETTRLNAVLDYIDAVTATDTSTAPDVIWPELPEA | not soluble
MEAEKKKLSIPPKGIRAIIEAIRLGEIIKPSQYAKREAFKKHDVEEAWLNRVLTMIFYDIMKKQGLIDKVIKEIVGVTPLILDPWLRAALRVAVDIALFHDPSSQTIKNLRWKASDFISSRTHPYVGMYFWDLLDKIFEYKPNPKNELEELEWKYLAPSWLIERVKGILGDETEDFFRSVNKRHEWISIRVNTLKANVEEVIGELEEDGVEVVRSERVPTILKIKGPYNFDTSSAFNEGKIIVQEEASAVASIVLDPKPGETVVDLAAAPGGKTTHLAELMKNKGKIYAFDVDKMRMKRLKDFVKRMGIKIVKPLVKDARKAPEIIGEEVADKVLLDAPCTSSGTIGKNPELRWRLREDKINEMSQLQRELLESAARLVKPGGRLLYTTCSIFKEENEKNIRWFLNVHPEFKLVPLKSPYDPGFLEGTMRAWPHRHSTIGFFYALLEKSK | soluble
GPGSMTSTVTAVNQTQSLAAIRNFVRASVSCITYARGLCSDNAYEQRPFLGLPLRQLIPSTTESITISEWIEKGAFDALNRNYLKEMSLCVYDAACHELLESYCFGFNYTGDGERAQMTLNASQTIADGSKTTAVSQSSGGAVGIPAYRKRRCTKQEVQHLLTSILERLMDVVESLPPLLSERVLTMRLTYYDAVTPASYEPPCFAPASEHMARLYQAEVKHHVNIGSMDTSHHLFSVAIRHPLLQQIHRQMTGRTTSAVATKT | not soluble
MKRFRKNNLELELIRELSEIDFYNISAPLNSKEFWKEWQEKFNRANLTRIALRNILRNKRLSPKEYRKVKNSIKKYEDIINYLNALKLTALNARGSFGGYFIEFDEDEEENEGGT | not soluble
SQDPSGDKVCRAGGEEDGEDGQHTSRVHDTEADPHHTEASSHRTEGSSHLTETSSRPSEAENGHDNSPHVNRAQDVGTQASPQGSLNSRVPVEARVVVEEAAIAPQGEQAPIIPGPSGDAATTAGSRLLEFSVTVPFRTAVEANIACRTLASNIQQQQVMVQQEFTVNDTILTVRWTTEDPVLFRTSINAFLDQLSLVVRNIPRPVFMAVFKQGRGRNN | soluble
MGQAGKQVAPVKCKGWAVEKPALKWSTDAVRLSDVTVPAPDPTQIRVRVYAASINPVDWKRVMFPASGSGPGVAGSALKGFKGMHHKPPNYPYPYVVGVDGAGEVESVGRKVTGLKAGDRVMFHSSLTNAHGGSLCEYAVMEESVAVPIPADGARPFSYEEAAAIPCATWTAYVALFDKLRIEPGRSIFVDGASGAVGSCAVQLAHHMGLYVFASCSPSNADYVRSIGADQVLNYHDGIEMVDQILDATEGYGVDYYLAVTNTQDAESFTDALRFGGAVCLLSGVLIPNSNVLFRRQLSVHYVFLNGLHGHPLTRPQLRYIGDQVAKLYQSGAFRLD | not soluble
MSKFAERLQTVANKPEVFQKFSRGLERESLRYTPEGALTQTPHPKALGAALTHRWITTDFAESLLEFITPVSHEVDTLLAQMSDIHHFAQTKLGDEKLWPLSMPCYVGSEEGIVLAQYGSSNTGKMKTLYREGLKRRYGSLMQIISGVHFNFSFPESFWDALFGEQEESARQASKSAAYFGVIRNYYRFGWLIPYLFGASPALCSSFLQGRKTDLPFESIGKTLYLPYATSLRLSDLGYTNSAQSVLQIGFNSIEQYLQGLNEAIRTPSAEFAKLGVKVEGEYRQLNSNVLQIENELYAPIRPKRVTQSGERPSQALARAGVEYIEVRSLDVNPFSPIGINEDQVRFLDLFLAWTALSDSDPMDGCELACWRDNWRKVVLEGRKPGLELQIGCHGEVLTLQAWAKRVFADLRVIAETMDAALGGDAYQAVCAKLETWIENPELTLSAQILAEIKQHGGLGKTGCALGNEYRAVNLQHQYQFYSQDEMEQEVRRSTQAQADIEAKETLNFDAYLTQYFAYLQAVS | not soluble
SCSTSGCDLEEIPLDDDDLNTIEFKILAYYTRHHVFKSTPALFSPKLLRTRSLSQRGLGNCSANESWTEVSWPCRNSQSSEKAINLGKKKSSWKAFFGVVEKEDSQSTPAKVSAQGQRTLEYQDSHSQQWSRCLSNVEQCLEHEAVDPKVISIANRVAEIVYSWPPPQATQAGGFKSKEIFVTEGLSFQLQGHVPVASSSKKDEEEQILAKIVELLKYSGDQLERKLKKDKALMGHFQDGLSYSVFKTITDQVLMGVDPRGESEVKAQGFKAALVIDVTAKLTAIDNHPMNRVLGFGTKYLKENFSPWIQQHGGWEKILGISHEEVD | soluble
KSCCSCCPAECEKCAKDCVCKGGEAAEAEAEKCSCCQ | soluble
MSLSHRPVINASVSPKGTLETLSQREVQQLSETANGKTYQLFRQCAPAILNTGAHSDNAKTILDAYKDFEVRIHQQDRGVRLELINAPADAFVDGEMIASTREMLFSALRDIVYTQSGLDSQHVDLDSSQGLTDYVFQLLRNARTLRPGVEPKIVVCWGGHSISSEEYKYTKRVGHELGLRSLDVCTGCGPGVMKGPMKGATISHAKQRIVGGRYLGLTEPGIIAAEAPNPIVNELVILPDIEKRLEAFVRVGHGVIIFPGGAGTAEEFLYLLGILMHPDNQDLPFPVILTGPRSAEAYLQQLHEFVGATLGHAAQRHYRIVIDDPAEVAKQMAQGLKEVKQFRRERNDAFHFNWMLKIDESFQRPFEPTHENMASLQLSRSLPPHELAANLRRAFSGIVAGNVKDNGIRMIEQYGPYEIHGDPAVMLPLDRLLQAFVKQHRMKLPGGAAYVPCYRVVQTEAAEGHHHHHH | soluble
MQRKTFADAECPIARSLERVGEWWSILIMRDALQGLRRFDEFSRSLDIAPNMLTRRLNALVEAGLLERQPYSQRPLRYQYVPTAKGEDFRVVLMAFVAWGNRHYAEEGQSVQLVERTSGRPVRSFMAALADGRTVPLEQCTVQAGPAASEEMRQRLAAMPERSELPAR | not soluble
MAQINFEGLRELHDCVNYLLHHCPKTRESLSQQGQEKWTEQVSEASLRMLDICNVSKDVMTLVKHSLQDLQLTLRGNESSDVNEKIAAYNRYKNKLKKETLKCLNCLKNMKGNEGRVAMPIEQNLLFVTEVLKEVRRVVVTMVESLFSLGCIPWLEKRSSKGSLSSIFSIRSSYLLDDEWDETAVQSATTRLEAAEITVVELEIELESIFRRLIQTRVSLLNILTN | soluble
